“And” between values parts separate entries of the source, which are not always exact repeats. Identical values can stand only once.
Assays:
human PD-L1 [1] = molecular target: T1, human PD-L1 (human, UniProt Q9NZQ7 19-290); test: cell-based or functional assay
human PD-L1 [2] = molecular target: T1, human PD-L1; test: FACS, NCI-H226 cells
Protocol: (§1) Specifically, the cells expressing PD-L1 were digested and resuspended in PBS buffer containing 2% BSA. The cells were adjusted to a cell density of 1×10⁶ cells/mL, respectively. The cells were seeded in a 96-well V-bottom plate (Corning, #3894) at 100 μL/well, and the antibody to be tested at 2×final concentration with 4-fold concentration gradient dilution was then added at 100 μL/well. The cells were incubated at 4° C. for 2 hours in the dark. After the incubation, the cells were rinsed twice by adding pre-chilled PBS containing 2% BSA at 100 μL/well, and centrifuged at 500 g at 4° C. for 5 minutes, and the supernatant was discarded. […] The cells were washed twice by adding pre-chilled PBS containing 2% BSA at 100 µL/well, and centrifuged at 500 g at 4° C. for 5 minutes, and the supernatant was discarded. Finally, the cells were resuspended in pre-chilled PBS buffer containing 2% BSA at 200 μL/well. The fluorescence signal values were read using a BD FACS CANTOII flow cytometer or ACEA NovoCyte flow cytometer, and the data were processed and analyzed using FlowJo v10 software (FlowJo, LLC).

cynomolgus monkey PD-L1 = molecular target: T2, cynomolgus monkey PD-L1 (cynomolgus monkey); test: FACS, CHO-K1/cyPD-L1 cells
T2 construct: whole, on cells; also called cyPD-L1
Protocol: as §1

cynomolgus monkey CD40 = molecular target: T3, cynomolgus monkey CD40 (cynomolgus monkey); test: FACS, CHO-K1/cyCD40 cells
T3 construct: whole, on cells; also called cyCD40
Protocol: (§2) The cells were incubated at 4° C. for 1 hours in the dark. After the incubation, the cells were rinsed twice by adding pre-chilled PBS at 100 μL/well, and centrifuged at 500 g at 4° C. for 5 minutes, and the supernatant was discarded. Then, a fluorescent secondary antibody (goat anti-human IgG (H+L) secondary antibody, Alexa Fluor® 488 conjugate, Invitrogen, #A11013, 1:1000 dilution) was added at 100 μL/well, and the cells were incubated at 4° C. for 30 minutes in the dark. The cells were washed twice with pre-chilled PBS at 200 μL/well, and centrifuged at 500 g at 4° C. for 5 minutes, and the supernatant was discarded. Finally, the cells were resuspended in pre-chilled PBS at 200 μL/well. The fluorescence signal values were read using a BD FACS CANTOII flow cytometer or ACEA NovoCyte flow cytometer, and the data were processed and analyzed using FlowJo v10 software (FlowJo, LLC).

human PD-L1 [3] = molecular target: T1, human PD-L1; test: FACS, CHO-K1/hPD-L1 cells
Protocol: as §1

human CD40 [4] = molecular target: T4, human CD40 (human, UniProt P25942 21-277); test: FACS, CHO-K1/hCD40 cells
T4 construct: whole, on cells; also called hCD40; TNFRSF5
T4 sequence (P25942 21-277): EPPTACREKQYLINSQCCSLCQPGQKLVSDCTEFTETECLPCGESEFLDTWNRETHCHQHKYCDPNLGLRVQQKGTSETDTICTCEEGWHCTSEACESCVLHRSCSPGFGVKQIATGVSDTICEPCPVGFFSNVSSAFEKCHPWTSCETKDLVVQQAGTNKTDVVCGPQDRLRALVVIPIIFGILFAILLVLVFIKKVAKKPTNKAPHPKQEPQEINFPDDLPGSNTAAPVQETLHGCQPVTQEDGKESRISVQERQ
Protocol: as §2

human CD40 [5] = molecular target: T4, human CD40; test: cell-based or functional assay
human CD40 [6] = molecular target: T4, human CD40; test: FACS, Raji cells
Protocol: as §2

T1 sequence (Q9NZQ7 19-290): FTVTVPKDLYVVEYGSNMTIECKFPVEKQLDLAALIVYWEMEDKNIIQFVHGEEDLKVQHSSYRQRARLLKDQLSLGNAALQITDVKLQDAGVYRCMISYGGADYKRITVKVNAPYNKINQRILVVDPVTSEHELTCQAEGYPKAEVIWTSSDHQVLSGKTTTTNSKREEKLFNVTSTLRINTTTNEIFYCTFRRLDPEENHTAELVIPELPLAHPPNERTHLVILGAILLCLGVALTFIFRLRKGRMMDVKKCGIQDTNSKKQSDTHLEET

Binder	EC50, Jurkat-NFAT-hPD1 reporter (human PD-L1 [1])	Maximum (RLU), Jurkat-NFAT-hPD1 reporter (human PD-L1 [1]) [RLU]	EC50 (human PD-L1 [2]) [nM]	Maximum MFI (human PD-L1 [2]) [MFI]	EC50 (cynomolgus monkey PD-L1) [nM]	Maximum MFI (cynomolgus monkey PD-L1) [MFI]	EC50 (cynomolgus monkey CD40) [nM]	Maximum MFI (cynomolgus monkey CD40) [MFI]	EC50 (human PD-L1 [3]) [nM]	Maximum MFI (human PD-L1 [3]) [MFI]	EC50 (human CD40 [4]) [nM]	Maximum MFI (human CD40 [4]) [MFI]	EC50, HEK293-hCD40-NFκB reporter, + CHO-K1 (human CD40 [5]) [nM]	EC50, HEK293-hCD40-NFκB reporter, + CHO-K1/hPD-L1 (human CD40 [5]) [nM]	Maximum (RLU), HEK293-hCD40-NFκB reporter, + CHO-K1 (human CD40 [5]) [RLU]	Maximum (RLU), HEK293-hCD40-NFκB reporter, + CHO-K1/hPD-L1 (human CD40 [5]) [RLU]	EC50 (human CD40 [6]) [nM]	Maximum MFI (human CD40 [6]) [MFI]
PR007273 (bispecific antibody, human IgG1, kappa, VH of PR006245 (PD-L1) - GS_5 - heavy chain of CD40 IgG PR006495; human IgG1 L234A/L235A/G237A; also called PD-L1×CD40) heavy: QVQLVESGGGVVQPGMSLRLSCAASGFDFSSYGMYWVRQAPGKGQEWVASIRYTGTEKHYADSVKGRFTISRDNSKNTLYLEMNSLRVEDTAVYYCAKNRAIFGVVPDASDIRGQGTMVTVSSGGGGSQVQLVQSGAEVKKPGASVKVSCKASGYTFAGYYMYWVRQAPGQGLEWMGWINPDSGAPTYAQKFQGRVTMTRDTSISTAYMELSRLRSDDTAVYYCAREKIYYGSGNYYPSFDYWGQGTLVTVSSASTKGPSVFPLAPSSKSTSGGTAALGCLVKDYFPEPVTVSWNSGALTSGVHTFPAVLQSSGLYSLSSVVTVPSSSLGTQTYICNVNHKPSNTKVDKKVEPKSCDKTHTCPPCPAPEAAGAPSVFLFPPKPKDTLMISRTPEVTCVVVDVSHEDPEVKFNWYVDGVEVHNAKTKPREEQYNSTYRVVSVLTVLHQDWLNGKEYKCKVSNKALPAPIEKTISKAKGQPREPQVYTLPPSREEMTKNQVSLTCLVKGFYPSDIAVEWESNGQPENNYKTTPPVLDSDGSFFLYSKLTVDKSRWQQGNVFSCSVMHEALHNHYTQKSLSLSPGK light: DIQLTQSPSFLSASVGDRVTITCRASQGISSYLAWYQQKPGKAPKLLIYAASTLQSGVPSRFSGSGSGTEFTLTISSLQPEDFATYYCQQLASYPWTFGQGTKVEIKRTVAAPSVFIFPPSDEQLKSGTASVVCLLNNFYPREAKVQWKVDNALQSGNSQESVTEQDSKDSTYSLSSTLTLSKADYEKHKVYACEVTHQGLSSPVTKSFNRGEC	0.109 nM	2520	0.773	914	0.89	4620	4.2	71300	1.39	19800	2.05	14300	0.238	0.0598	199000	333000	1.43	7580
PR007275 (bispecific antibody, human IgG1, kappa, VH of PR006247 (PD-L1) - GS_5 - heavy chain of CD40 IgG PR006495; human IgG1 L234A/L235A/G237A; also called PD-L1×CD40) heavy: QVQLVESGGGVVQPGMSLRLSCAASGFDFSSYGMYWVRQAPGKGQEWVASIRYTGTEKHYADSVKGRFTISRDNSKNTLYLEMNSLRVEDTAVYYCAKNRALFGVIPDASDIRGQGTMVTVSSGGGGSQVQLVQSGAEVKKPGASVKVSCKASGYTFAGYYMYWVRQAPGQGLEWMGWINPDSGAPTYAQKFQGRVTMTRDTSISTAYMELSRLRSDDTAVYYCAREKIYYGSGNYYPSFDYWGQGTLVTVSSASTKGPSVFPLAPSSKSTSGGTAALGCLVKDYFPEPVTVSWNSGALTSGVHTFPAVLQSSGLYSLSSVVTVPSSSLGTQTYICNVNHKPSNTKVDKKVEPKSCDKTHTCPPCPAPEAAGAPSVFLFPPKPKDTLMISRTPEVTCVVVDVSHEDPEVKFNWYVDGVEVHNAKTKPREEQYNSTYRVVSVLTVLHQDWLNGKEYKCKVSNKALPAPIEKTISKAKGQPREPQVYTLPPSREEMTKNQVSLTCLVKGFYPSDIAVEWESNGQPENNYKTTPPVLDSDGSFFLYSKLTVDKSRWQQGNVFSCSVMHEALHNHYTQKSLSLSPGK light: DIQLTQSPSFLSASVGDRVTITCRASQGISSYLAWYQQKPGKAPKLLIYAASTLQSGVPSRFSGSGSGTEFTLTISSLQPEDFATYYCQQLASYPWTFGQGTKVEIKRTVAAPSVFIFPPSDEQLKSGTASVVCLLNNFYPREAKVQWKVDNALQSGNSQESVTEQDSKDSTYSLSSTLTLSKADYEKHKVYACEVTHQGLSSPVTKSFNRGEC	0.234 nM	2840	0.764	959	0.807	4620	4.12	66000	1.29	20000	2.57	14200	0.213	0.0558	231000	371000	1.58	7650

The next binders have a lower EC50 (human PD-L1 [2]) than those just listed; values first:

EC50, Jurkat-NFAT-hPD1 reporter (human PD-L1 [1])	Maximum (RLU), Jurkat-NFAT-hPD1 reporter (human PD-L1 [1]) [RLU]	EC50 (human PD-L1 [2]) [nM]	Maximum MFI (human PD-L1 [2]) [MFI]	EC50 (cynomolgus monkey PD-L1) [nM]	Maximum MFI (cynomolgus monkey PD-L1) [MFI]	EC50 (cynomolgus monkey CD40) [nM]	Maximum MFI (cynomolgus monkey CD40) [MFI]	EC50 (human PD-L1 [3]) [nM]	Maximum MFI (human PD-L1 [3]) [MFI]	EC50 (human CD40 [4]) [nM]	Maximum MFI (human CD40 [4]) [MFI]	EC50, HEK293-hCD40-NFκB reporter, + CHO-K1 (human CD40 [5]) [nM]	EC50, HEK293-hCD40-NFκB reporter, + CHO-K1/hPD-L1 (human CD40 [5]) [nM]	Maximum (RLU), HEK293-hCD40-NFκB reporter, + CHO-K1 (human CD40 [5]) [RLU]	Maximum (RLU), HEK293-hCD40-NFκB reporter, + CHO-K1/hPD-L1 (human CD40 [5]) [RLU]	EC50 (human CD40 [6]) [nM]	Maximum MFI (human CD40 [6]) [MFI]	Binder
0.162 nM	2910	0.521	869	0.714	4670	2.57	53000	1.12	19700	2.4	16400	0.234	0.0692	189000	271000	1.46	7570	PR007269 (bispecific antibody, human IgG1, kappa, VH of PR006246 (PD-L1) - GS_5 - heavy chain of CD40 IgG PR006511; human IgG1 L234A/L235A/G237A; also called PD-L1×CD40) heavy: QVQLVESGGGVVQPGMSLRLSCAASGFDFSSYGMYWVRQAPGKGQEWVASIRYTGTEKHYADSVKGRFTISRDNSKNTLYLEMNSLRVEDTAVYYCAKNRAIFGVIPDDSDIRGQGTMVTVSSGGGGSQVQLVQSGAEVKKPGASVKVSCKASGYTFAGYYMYWVRQAPGQGLEWMGWINPDSGAPTYAQKFQGRVTMTRDTSISTAYMELSRLRSDDTAVYYCAREKIYYGSGNYYPSFDYWGQGTLVTVSSASTKGPSVFPLAPSSKSTSGGTAALGCLVKDYFPEPVTVSWNSGALTSGVHTFPAVLQSSGLYSLSSVVTVPSSSLGTQTYICNVNHKPSNTKVDKKVEPKSCDKTHTCPPCPAPEAAGAPSVFLFPPKPKDTLMISRTPEVTCVVVDVSHEDPEVKFNWYVDGVEVHNAKTKPREEQYNSTYRVVSVLTVLHQDWLNGKEYKCKVSNKALPAPIEKTISKAKGQPREPQVYTLPPSREEMTKNQVSLTCLVKGFYPSDIAVEWESNGQPENNYKTTPPVLDSDGSFFLYSKLTVDKSRWQQGNVFSCSVMHEALHNHYTQKSLSLSPGK light: DIQLTQSPSFLSASVGDRVTITCRASQGISSYLAWYQQKPGKAPKLLIYAASTLQSGVPSRFSGSGSGTEFTLTISSLQPEDFATYYCQQLNNYPWTFGQGTKVEIKRTVAAPSVFIFPPSDEQLKSGTASVVCLLNNFYPREAKVQWKVDNALQSGNSQESVTEQDSKDSTYSLSSTLTLSKADYEKHKVYACEVTHQGLSSPVTKSFNRGEC
0.122 nM and 0.309 nM		0.366	914	0.629	4820	1.77	51300	1.02	20100	2.5	17700	0.334	0.0312	3880	4780	1.26	6790	PR007619 (bispecific antibody, human IgG1, kappa, VH of PR006246 (PD-L1) - GS_3 - heavy chain of CD40 IgG PR006504; human IgG1 L234A/L235A/G237A; also called PD-L1×CD40) heavy: QVQLVESGGGVVQPGMSLRLSCAASGFDFSSYGMYWVRQAPGKGQEWVASIRYTGTEKHYADSVKGRFTISRDNSKNTLYLEMNSLRVEDTAVYYCAKNRAIFGVIPDDSDIRGQGTMVTVSSGGSQVQLVQSGAEVKKPGASVKVSCKASGYTFAGYYMYWVRQAPGQGLEWMGWINPDSGAPTYAQKFQGRVTMTRDTSISTAYMELSRLRSDDTAVYYCAREKIYYGSGNYYPSFDYWGQGTLVTVSSASTKGPSVFPLAPSSKSTSGGTAALGCLVKDYFPEPVTVSWNSGALTSGVHTFPAVLQSSGLYSLSSVVTVPSSSLGTQTYICNVNHKPSNTKVDKKVEPKSCDKTHTCPPCPAPEAAGAPSVFLFPPKPKDTLMISRTPEVTCVVVDVSHEDPEVKFNWYVDGVEVHNAKTKPREEQYNSTYRVVSVLTVLHQDWLNGKEYKCKVSNKALPAPIEKTISKAKGQPREPQVYTLPPSREEMTKNQVSLTCLVKGFYPSDIAVEWESNGQPENNYKTTPPVLDSDGSFFLYSKLTVDKSRWQQGNVFSCSVMHEALHNHYTQKSLSLSPGK light: DIQLTQSPSFLSASVGDRVTITCRASQGISSYLAWYQQKPGKAPKLLIYAASTLQSGVPSRFSGSGSGTEFTLTISSLQPEDFATYYCQQLVSYPWTFGQGTKVEIKRTVAAPSVFIFPPSDEQLKSGTASVVCLLNNFYPREAKVQWKVDNALQSGNSQESVTEQDSKDSTYSLSSTLTLSKADYEKHKVYACEVTHQGLSSPVTKSFNRGEC
